Data reported in patent US20160009772A1 (published 2016).
Primed or numbered codes have the meaning given here. FITC′ = fluorescein isothiocyanate; Ahx = NCCCCCC(=O)O

Molecular target: N-terminal His (six histadine)-tagged IRF5 (222-425) SEQ ID NO 22 (UniProt Q13568 222-425)
Test: TR-FRET

Chain of N-terminal His (six histadine)-tagged IRF5 (222-425) SEQ ID NO 22 (Q13568 other isoform, or with tags, fused parts or gaps): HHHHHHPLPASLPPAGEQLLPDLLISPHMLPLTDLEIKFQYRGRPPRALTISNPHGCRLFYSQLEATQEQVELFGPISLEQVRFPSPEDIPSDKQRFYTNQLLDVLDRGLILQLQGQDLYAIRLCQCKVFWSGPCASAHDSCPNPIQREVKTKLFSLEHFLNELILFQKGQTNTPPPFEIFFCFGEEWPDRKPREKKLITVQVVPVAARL

Kd | Binder
930 nM | {FITC′-Ahx}-IRLQISNPYLKFIPLKRAIWLIK-NH2 [FITC-Aha-IRLQISNPYLKFIPLKRAIWLIK-NH2 (SEQ ID NO: 16)]
530 nM | {FITC′-Ahx}-MIILIISFPKHKDWKVILVK-NH2 [FITC-Aha-MIILIISFPKHKDWKVILVK-NH2 (SEQ ID NO: 17)]
